This note sets out measurements from article doi:10.1101/2020.03.02.972281 (bioRxiv, 2020).

Assay [1] has as its target T1, transferrin (human, UniProt P02787 20-698). The experiment in a line: SPR.
For assay [2], the target named is T1, transferrin. The experiment in a line: native gel or EMSA.

T1 sequence (P02787 20-698): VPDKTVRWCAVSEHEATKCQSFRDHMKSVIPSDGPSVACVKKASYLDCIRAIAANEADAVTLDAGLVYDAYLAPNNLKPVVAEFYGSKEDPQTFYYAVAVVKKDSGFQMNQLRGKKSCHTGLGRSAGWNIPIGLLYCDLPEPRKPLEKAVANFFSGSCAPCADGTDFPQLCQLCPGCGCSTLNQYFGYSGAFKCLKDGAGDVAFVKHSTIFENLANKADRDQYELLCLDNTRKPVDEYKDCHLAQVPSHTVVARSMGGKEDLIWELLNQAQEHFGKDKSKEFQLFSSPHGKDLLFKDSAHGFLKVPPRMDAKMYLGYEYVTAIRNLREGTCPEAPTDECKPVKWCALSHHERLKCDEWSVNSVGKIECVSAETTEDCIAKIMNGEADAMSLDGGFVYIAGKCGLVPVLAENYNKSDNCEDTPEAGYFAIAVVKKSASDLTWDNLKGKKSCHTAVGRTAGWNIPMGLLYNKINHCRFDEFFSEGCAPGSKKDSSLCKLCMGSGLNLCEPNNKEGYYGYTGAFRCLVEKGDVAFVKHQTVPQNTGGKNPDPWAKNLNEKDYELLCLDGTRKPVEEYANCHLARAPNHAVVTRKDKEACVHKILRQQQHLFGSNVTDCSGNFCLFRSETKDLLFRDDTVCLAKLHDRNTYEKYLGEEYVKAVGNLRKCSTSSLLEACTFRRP

For the molecule “CD14 (SEA518Mu-48T, Uscn) (from UniProt P08571 20-345) (natural protein)”, in the assay with transferrin [1], the Kd was 14 nM, the koff worked out at 0.00033 s⁻¹ and the kon is 24000 M⁻¹ s⁻¹. With ELDDEDFRCVCNFSEPQPDWSEAFQCVSAVEVEIHAGGLN [LPS binding region of CD14 N-terminus (CD14N)], in the assay with transferrin [1], the binding result is recorded as “binds”.

B1: human CD14 (natural protein, UniProt P08571 20-345, looked up)
chain: TTPEPCELDDEDFRCVCNFSEPQPDWSEAFQCVSAVEVEIHAGGLNLEPFLKRVDADADPRQYADTVKALRVRRLTVGAAQVPAQLLVGALRVLAYSRLKELTLEDLKITGTMPPLPLEATGLALSSLRLRNVSWATGRSWLAELQQWLKPGLKVLSIAQAHSPAFSCEQVRAFPALTSLDLSDNPGLGERGLMAALCPHKFPAIQNLALRNTGMETPTGVCAALAAAGVQPHSLDLSHNSLRATVNPSAPRCMWSSALNSLNLSFAGLEQVPKGLPAKLRVLDLSCNRLNRAPQPDELPEVDNLTLDGNPFLVPGTALPHEGSMN
B1: in the assay with transferrin [2], the binding result is listed as “binds”.
